From patent publication US20120311745A1

Target: receptor protein(s) / binding site of Cry1Ab core toxin on Brush Border Membrane Vesicles (BBMV's) f (Spodoptera frugiperda)

Substance: Cry1Ab core toxin protein (activated core toxin prepared by trypsin digestion of the Cry1Ab protein) (from UniProt P0A370 29-612)
- IC50: 5 nM
